One data set relates to MCF7. The data set is described as follows: percentage of EdU-negative (G0-arrested) nuclei per well, 72 h; higher = more G0 arrest. Conditions: reference: sequence is the full UniProt precursor, the tested protein was the secreted form or ectodomain.
In another data set the test system is hTERT-HMEC. Described as above. Conditions: reference: sequence is the full UniProt precursor, the tested protein was the secreted form or ectodomain.
Setting [1] is: protein concentration 0.0171429 µM.
Setting [2] is: protein concentration 0.171429 µM.
[3] abbreviates: protein concentration 0.020715 µM.
Setting [4] is: protein concentration 0.20715 µM.
Setting [5] is: protein concentration 0.0115 µM.
[6] abbreviates: protein concentration 0.03125 µM.
Where [7] appears, read: protein concentration 0.3125 µM.
Setting [8] is: protein concentration 0.0225 µM.

± gives the standard deviation of the averaged measurements.
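Further: secreted proteins added to cultured cells, EdU pulse at the end, nuclei found by Hoechst imaging, EdU status from nuclear versus surrounding ring intensity ratio, PBS as neutral control.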

For the sequence “MLLFLLSALVLLTQPLGYLEAEMKTYSHRTMPSACTLVMCSSVESGLPGRDGRDGREGPRGEKGDPGLPGAAGQAGMPGQAGPVGPKGDNGSVGEPGPKGDTGPSGPPGPPGVPGPAGREGPLGKQGNIGPQGKPGPKGEAGPKGEVGAPGMQGSAGARGLAGPKGERGVPGERGVPGNTGAAGSAGAMGPQGSPGARGPPGLKGDKGIPGDKGAKGESGLPDVASLRQQVEALQGQVQHLQAAFSQYKKVELFPNGQSVGEKIFKTAGFVKPFTEAQLLCTQAGGQLASPRSAAENAALQQLVVAKNEAAFLSMTDSKTEGKFTYPTGESLVYSNWAPGEPNDDGGSEDCVEIFTNGKWNDRACGEKRLVVCEF”, the “percentage of EdU-negative” value in the data set with MCF7 (setting [1]) was found to be 23.4 ± 1.8%; with MCF7 (setting [2]), 25.14 ± 0.067%; in the data set with hTERT-HMEC (setting [1]), 4.51 ± 0.51%; in the data set on hTERT-HMEC (setting [2]) it was 5.78 ± 0.29%.

“MLLKTVLLLGHVAQVLMLDNGLLQTPPMGWLAWERFRCNINCDEDPKNCISEQLFMEMADRMAQDGWRDMGYTYLNIDDCWIGGRDASGRLMPDPKRFPHGIPFLADYVHSLGLKLGIYADMGNFTCMGYPGTTLDKVVQDAQTFAEWKVDMLKLDGCFSTPEERAQGYPKMAAALNATGRPIAFSCSWPAYEGGLPPRVNYSLLADICNLWRNYDDIQDSWWSVLSILNWFVEHQDILQPVAGPGHWNDPDMLLIGNFGLSLEQSRAQMALWTVLAAPLLMSTDLRTISAQNMDILQNPLMIKINQDPLGIQGRRIHKEKSLIEVYMRPLSNKASALVFFSCRTDMPYRYHSSLGQLNFTGSVIYEAQDVYSGDIISGLRDETNFTVIINPSGVVMWYLYPIKNLEMSQQ”: the “percentage of EdU-negative” value is 27.8 ± 0.95% in the data set on MCF7 (setting [3]), 26.5 ± 1.4% in the data set with MCF7 (setting [4]), 5.62 ± 0.13% with hTERT-HMEC (setting [3]) and 6.091 ± 0.044% with hTERT-HMEC (setting [4]).

Consider “MLLLFLLFEGLCCPGENTAAPQALQSYHLAAEEQLSFRMLQTSSFANHSWAHSEGSGWLGDLQTHGWDTVLGTIRFLKPWSHGNFSKQELKNLQSLFQLYFHSFIQIVQASAGQFQLEYPFEIQILAGCRMNAPQIFLNMAYQGSDFLSFQGISWEPSPGAGIRAQNICKVLNRYLDIKEILQSLLGHTCPRFLAGLMEAGESELKRKVKPEAWLSCGPSPGPGRLQLVCHVSGFYPKPVWVMWMRGEQEQRGTQRGDVLPNADETWYLRATLDVAAGEAAGLSCRVKHSSLGGHDLIIHWGGYSIFLILICLTVIVTLVILVVVDSRLKKQSSNKNILSPHTPSPVFLMGANTQDTKNSRHQFCLAQVSWIKNRVLKKWKTRLNQLW”, for which the “percentage of EdU-negative” value in the data set on MCF7 (setting [5]) stood at 28.7 ± 2.1%; with MCF7 (protein concentration 0.115 µM), 26 ± 1.3%; in the data set with hTERT-HMEC (setting [5]), 4.889 ± 0.0055%; in the data set with hTERT-HMEC (protein concentration 0.115 µM), 8.22 ± 0.88%.

Consider “MLLLFSVILISWVSTVGGEGTLCDFPKIHHGFLYDEEDYNPFSQVPTGEVFYYSCEYNFVSPSKSFWTRITCTEEGWSPTPKCLRMCSFPFVKNGHSESSGLIHLEGDTVQIICNTGYSLQNNEKNISCVERGWSTPPICSFTKGECHVPILEANVDAQPKKESYKVGDVLKFSCRKNLIRVGSDSVQCYQFGWSPNFPTCKGQVRSCGPPPQLSNGEVKEIRKEEYGHNEVVEYDCNPNFIINGPKKIQCVDGEWTTLPTCVEQVKTCGYIPELEYGYVQPSVPPYQHGVSVEVNCRNEYAMIGNNMITCINGIWTELPMCVATHQLKRCKIAGVNIKTLLKLSGKEFNHNSRIRYRCSDIFRYRHSVCINGKWNPEVDCTEKREQFCPPPPQIPNAQNMTTTVNYQDGEKVAVLCKENYLLPEAKEIVCKDGRWQSLPRCVESTAYCGPPPSINNGDTTSFPLSVYPPGSTVTYRCQSFYKLQGSVTVTCRNKQWSEPPRCLDPCVVSEENMNKNNIQLKWRNDGKLYAKTGDAVEFQCKFPHKAMISSPPFRAICQEGKFEYPICE [Q9BXR6]”, for which the “percentage of EdU-negative” value with MCF7 (protein concentration 0.024 µM) was determined as 25.7 ± 0.37%; in the data set with MCF7 (protein concentration 0.24 µM), 30.6 ± 1.7%; in the data set on hTERT-HMEC (protein concentration 0.024 µM), 4.32 ± 0.27%; with hTERT-HMEC (protein concentration 0.24 µM), 5.71 ± 1.3%.

Regarding “MLLLGAVLLLLALPGHDQETTTQGPGVLLPLPKGACTGWMAGIPGHPGHNGAPGRDGRDGTPGEKGEKGDPGLIGPKGDIGETGVPGAEGPRGFPGIQGRKGEPGEGAYVYRSAFSVGLETYVTIPNMPIRFTKIFYNQQNHYDGSTGKFHCNIPGLYYFAYHITVYMKDVKVSLFKKDKAMLFTYDQYQENNVDQASGSVLLHLEVGDQVWLQVYGEGERNGLYADNDNDSTFTGFLLYHDTN”, the “percentage of EdU-negative” value in the data set with MCF7 (setting [6]) is 26.2 ± 2.3%; in the data set on MCF7 (setting [7]) it was 25.6 ± 1.1%; in the data set with hTERT-HMEC (setting [6]), 5.07 ± 0.4%; in the data set on hTERT-HMEC (setting [7]), 5.02 ± 0.22%.

“MLLLINVILTLWVSCANGQEVKPCDFPEIQHGGLYYKSLRRLYFPAAAGQSYSYYCDQNFVTPSGSYWDYIHCTQDGWSPTVPCLRTCSKSDVEIENGFISESSSIYILNEETQYNCKPGYATAEGNSSGSITCLQNGWSTQPICIKFCDMPVFENSRAKSNGMWFKLHDTLDYECYDGYESSYGNTTDSIVCGEDGWSHLPTCYNSSENCGPPPPISNGDTTSFPQKVYLPWSRVEYQCQSYYELQGSKYVTCSNGDWSEPPRCISMKPCEFPEIQHGHLYYENTRRPYFPVATGQSYSYYCDQNFVTPSGSYWDYIHCTQDGWLPTVPCLRTCSKSDIEIENGFISESSSIYILNKEIQYKCKPGYATADGNSSGSITCLQNGWSAQPICIKFCDMPVFENSRAKSNGMRFKLHDTLDYECYDGYEISYGNTTGSIVCGEDGWSHFPTCYNSSEKCGPPPPISNGDTTSFLLKVYVPQSRVEYQCQSYYELQGSNYVTCSNGEWSEPPRCIHPCIITEENMNKNNIQLKGKSDIKYYAKTGDTIEFMCKLGYNANTSVLSFQAVCREGIVEYPRCE”: the “percentage of EdU-negative” value amounted to 24.7 ± 2.6% in the data set with MCF7 (setting [8]), 28.7 ± 0.4% in the data set with MCF7 (protein concentration 0.225 µM), 4.84 ± 0.38% in the data set on hTERT-HMEC (setting [8]) and 4.68 ± 0.36% with hTERT-HMEC (protein concentration 0.225 µM).

Turning to “MLLLINVILTLWVSCANGQVKPCDFPDIKHGGLFHENMRRPYFPVAVGKYYSYYCDEHFETPSGSYWDYIHCTQNGWSPAVPCLRKCYFPYLENGYNQNYGRKFVQGNSTEVACHPGYGLPKAQTTVTCTEKGWSPTPRCIRVRTCSKSDIEIENGFISESSSIYILNKEIQYKCKPGYATADGNSSGSITCLQNGWSAQPICINSSEKCGPPPPISNGDTTSFLLKVYVPQSRVEYQCQPYYELQGSNYVTCSNGEWSEPPRCIHPCIITEENMNKNNIKLKGRSDRKYYAKTGDTIEFMCKLGYNANTSILSFQAVCREGIVEYPRCE”, the “percentage of EdU-negative” value in the data set on MCF7 (setting [8]) was 28 ± 0.75%; in the data set with MCF7 (protein concentration 0.225 µM) it was 29.4 ± 0.63%; in the data set on hTERT-HMEC (setting [8]) it was 5.2 ± 0.45%; with hTERT-HMEC (protein concentration 0.225 µM), 5.74 ± 0.65%.

On to “MLLLLLPLLWGRERAEGQTSKLLTMQSSVTVQEGLCVHVPCSFSYPSHGWIYPGPVVHGYWFREGANTDQDAPVATNNPARAVWEETRDRFHLLGDPHTKNCTLSIRDARRSDAGRYFFRMEKGSIKWNYKHHRLSVNVTALTHRPNILIPGTLESGCPQNLTCSVPWACEQGTPPMISWIGTSVSPLDPSTTRSSVLTLIPQPQDHGTSLTCQVTFPGASVTTNKTVHLNVSYPPQNLTMTVFQGDGTVSTVLGNGSSLSLPEGQSLRLVCAVDAVDSNPPARLSLSWRGLTLCPSQPSNPGVLELPWVHLRDAAEFTCRAQNPLGSQQVYLNVSLQSKATSGVTQGVVGGAGATALVFLSFCVIFVVVRSCRKKSARPAAGVGDTGIEDANAVRGSASQGPLTEPWAEDSPPDQPPPASARSSVGEGELQYASLSFQMVKPWDSRGQEATDTEYSEIKIHR [Q9Y336]”, for which the “percentage of EdU-negative” value in the data set with MCF7 (setting [8]) stood at 26.3 ± 0.23%; in the data set with MCF7 (protein concentration 0.225 µM), 30.4 ± 0.4%; in the data set with hTERT-HMEC (setting [8]) it was 5.01 ± 0.61%; in the data set on hTERT-HMEC (protein concentration 0.225 µM) it was 4.21 ± 0.26%.

Turning to “MLLLLTLALLGGPTWAGKMYGPGGGKYFSTTEDYDHEITGLRVSVGLLLVKSVQVKLGDSWDVKLGALGGNTQEVTLQPGEYITKVFVAFQAFLRGMVMYTSKDRYFYFGKLDGQISSAYPSQEGQVLVGIYGQYQLLGIKSIGFEWNYPLEEPTTEPPVNLTYSANSPVGR [Q96DA0]”, the “percentage of EdU-negative” value with MCF7 (setting [8]) turned out to be 25.49 ± 0.17%; with MCF7 (protein concentration 0.225 µM) it was 24.3 ± 2.2%; in the data set on hTERT-HMEC (setting [8]), 5.62 ± 0.12%; in the data set on hTERT-HMEC (protein concentration 0.225 µM), 9.31 ± 0.28%.

On to “MLLLPFQLLAVLFPGGNSEHAFQGPTSFHVIQTSSFTNSTWAQTQGSGWLDDLQIHGWDSDSGTAIFLKPWSKGNFSDKEVAELEEIFRVYIFGFAREVQDFAGDFQMKYPFEIQGIAGCELHSGGAIVSFLRGALGGLDFLSVKNASCVPSPEGGSRAQKFCALIIQYQGIMETVRILLYETCPRYLLGVLNAGKADLQRQVKPEAWLSSGPSPGPGRLQLVCHVSGFYPKPVWVMWMRGEQEQQGTQLGDILPNANWTWYLRATLDVADGEAAGLSCRVKHSSLEGQDIILYWRNPTSIGSIVLAIIVPSLLLLLCLALWYMRRRSYQNIP”, for which the “percentage of EdU-negative” value in the data set on MCF7 (setting [8]) came out at 25.9 ± 0.97%; in the data set on MCF7 (protein concentration 0.225 µM) it was 24.2 ± 1.6%; with hTERT-HMEC (setting [8]), 5.01 ± 0.84%; in the data set with hTERT-HMEC (protein concentration 0.225 µM) it was 6.06 ± 0.84%.

“MLLLVTSLLLCELPHPAFLLIPEKSDLRTVAPASSLNVRFDSRTMNLSWDCQENTTFSKCFLTDKKNRVVEPRLSNNECSCTFREICLHEGVTFEVHVNTSQRGFQQKLLYPNSGREGTAAQNFSCFIYNADLMNCTWARGPTAPRDVQYFLYIRNSKRRREIRCPYYIQDSGTHVGCHLDNLSGLTSRNYFLVNGTSREIGIQFFDSLLDTKKIERFNPPSNVTVRCNTTHCLVRWKQPRTYQKLSYLDFQYQLDVHRKNTQPGTENLLINVSGDLENRYNFPSSEPRAKHSVKIRAADVRILNWSSWSEAIEFGSDDGNLGSVYIYVLLIVGTLVCGIVLGFLFKRFLRIQRLFPPVPQIKDKLNDNHEVEDEIIWEEFTPEEGKGYREEVLTVKEIT”: the “percentage of EdU-negative” value in the data set on MCF7 (setting [8]) was 23.5 ± 1.9%; in the data set with MCF7 (protein concentration 0.225 µM) it was 25.3 ± 2.3%; in the data set with hTERT-HMEC (setting [8]) it was 5.11 ± 0.35%; in the data set on hTERT-HMEC (protein concentration 0.225 µM), 4.81 ± 0.71%.

The record behind these values is the supplement of paper PMC11316812.
